Measured values published in the nanobody polyreactivity screen of Harvey et al. (2022).

Assay: yeast display, Sf9 membrane polyspecificity reagent, FACS + sequencing; frameworks hold sequencing errors
How it was run: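 In a synthetic yeast display library (Saccharomyces cerevisiae BJ5465), nanobody expression was induced with galactose for 36–48 hours. FACS gates were set low and high (top ~1%) using anti-HA fluorescence for expression and streptavidin fluorescence for binding of the Sf9 membrane reagent. Each polyreactivity label is drawn from the gate of origin.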

Sequence | polyreactivity (PSR sort gate)
QVQLVETGGGLVQAGGSLRLSCAASGRTISVNAMVWYIQAPGKESELVAAISSGGGTNYADSVKGRFTISRDNAKNTVYFQMNSLKPEDTAVYYCAADSRPGKYYEDDYWGQGTQVTVSS | low polyreactivity
QVKLVESGGGLVQAGGSLRLSCAASGFTFSRNTMGWYRQAPGKERELVATISFRGGTTYYADSVKGRFTISRDNAKNTVYLQMNSLKPEDTAVYYCAVKVGFVRLLYHYYYWGQGTQVTVSS | high polyreactivity
QVQLVESGGGLVQAGGSLRLSCAASGSILVHYAMGWYRPAPGKEWELVAAISSVGSTNYADSVKGRFTMTRDNAKNTVYLQMNSLKPEDTAVYYCAARASRWYIAVDYWRQGTQVTVSS | low polyreactivity
QVQLVESGGGLVQAGGSLRLSCAASGRTYVRNGMGWYRQAPGKERELVAAISRGGSTNYADSVKGRFTISRDNAKNTVYLEMNSLKPEDTAVYYCNARTAEYRPYYYRYNYWGQGTQVTLSS | high polyreactivity
QVQLVESGGGLVQAGGSLRLSCAASGITFARYAMGLYIQAPGKERELVAAISKRGGRKYYADSVKGRFTISRDNAKNTVYLQMNSLKPEDTAVYYCATDYYVSTDYNLWGQGTQVTVSS | high polyreactivity
QVQLVESGGGLVQAGGSLRLSCAASGSTFVPYAMGWYRQAPGKERELVAAISSAGSTNYADSVKGRFTISRDNAKNTVYLQMNSLKPEDTAVYYCARDIQDTYVFDYWGQGTQVTVSS | low polyreactivity
QVQLVESGGGLVQAGGSLRLSCAASGLIFSGYAMGWYRQAPGKERELVAAISRGGGRTSYADSVKGRFTISRDNAKNTVYLQMNSLKPEDTAVYYCAKDPRYLRYDHWGQGTQVTVSS | high polyreactivity
QVQLVESGGGLVQAGGSRRLSCAASGSILSKYTMGWYRQATGKERELVAVISSSGASTYYADSVKGRFTISRDNAKNTVYLQMNSLKPEDTAVYYCATYPWYSKYRYDHWGQGTQVTVSS | high polyreactivity
QVQLVESGGGLVQAGGSLRLSCAASGRTFYKNAMGWYRQAPGKERELVAAISQRGGGTYYADSVKGRFTISRDNAKNTVYLQMNSLKPEDTAVYYCNAPLVFIHGSDYWGQGTQVTVSS | high polyreactivity
QVQLVESGGGLVQAGGSLRLSCAASGGTLRYYAMGWYRQAPGTEREFVASIARSGGSTYYADSVKGGFTISRDNAKNTVYLQMNRLKPEDTAVYYCADRVRLYRGFTKYDYWGQGTQVTVSS | high polyreactivity
QVQLVESGVGLVQAGGSLRLSCAASGCIFIKYAMGWSRQAPGKERELVASITISSGRTYYADSVKGRFTISRDNAKNTVYLQMISLKPEDTAVYYCAAVSLWYSAYEYWGQGTQVTVSS | high polyreactivity
QVQLLESGGGLVQAGGSLRISCAASGRTFTYNAMGWYRQAPGKERELVAAITASGGSTYYADSVKGRFTISRDNAKNTVYLQMNSLKPEDTAVYYCAARWSSPYVKLGYWGQGTQVTVSS | high polyreactivity
QVQLVESGGGLVQAGGSLRLSCAASGSIFGKNVMGWYRQAPGKDRELVAAITSGASTYYADSVKGRFTISRDNAKNTDYLQMNSLKPDDTAVYYCAARRWRKYYSGYNYWGHGTQVTVSS | high polyreactivity
QVQLVESGGGLVQAGGSLRLSCAASGSIFDVNAMGWYRQAPGKERELVAAISDSGGSTYYADSVKGRFTISRDNAKNTVYLQMNSLKPEDSAVYYCNADWSWYNYYDFDYWGQGTQVTVSS | low polyreactivity
QVQLVESGGGLVQAGGSLRLSCAASGRTFEVYTMGWYRQAPGKERELVARIRRGASTNYADSVKGRFTISRDNAKNTVYLQMNSLKPEDTAVYYCNARYTAVAVRWTWPYETQADDYWGQGTQVTVSS | low polyreactivity
QVQLVESGGGLVQAGGSLRLSCAASGFTIGYNVMGWYRQAPGKERELVATISWNGARTYYADSVKGRFTISRDNAKNTVYLQMNSLKPEDTAVYYCAARRYYRGEYDYWGQGTQVTVSS | low polyreactivity

Sequence | polyreactivity (PSR sort gate)
QVQLVESGGGLVQAGGSLRLSCAASGSTFSYNAMGWYRQAPGKERELVAAISRSGGSTYYADSVKGRFTISRDNAKNTVYLQIKSLKPEFTAVYYFAADSPYGYYEGDYWGQGTQVTVSS | low polyreactivity
QVQLVESGGGLVQAGGSLRLSCAASGLTFYRNAMGRYRQAPGKERELVAAITASGGRTYYADSVKGRFTISRDNAKNTVYLQMNSLKPEVTAVYYCAADGKVQGGYYWGQGTQVTVSS | high polyreactivity
QVQLVESGGGLVQAGGSLRLSCAASGFTLAFYGMGWYRQAPGKERELVAAISWSGDSTYYADSVKGRFTISRDNAKNTVYLQMNSLKPEDTAVYYCAKPKRRFYDRPSDYWGQGTQVTVSS | high polyreactivity
QVQLVESGGGLFQAGGSLRLSCAASGRTFVHNAMGWYRQAPGKERDLVAVITSGARTTYADSVKGRFTISRDNAKNTVYLQMNSLKPEDTAVYYFAAGTFSVIFSYKYRHYYYWGQGTQVTVSS | low polyreactivity
QVQLVESGGVLFQAGGSLRLSCAAAGFTFKYNAMGWYRQAPGKERELVASITSGATNYADSVKGRFTIARDNAKNTVSLQLTTLKPEETAVYDCAVVDVHYTRAKVGYAYGAYDYWGQCTQVTVSS | low polyreactivity
QDQLVESGGGLVQAGGSLRLSCAASGFTFYLYTMGSYRQAPGKERELVATITSDGGTNYADSVKGRFTISRDNAKNTVYLQMNSLKPEDTAVYFCNAASRRGSRKQAKYDYWGQGTQVTVSS | low polyreactivity
QVQLVESGGGLVQAGGRLRLSCAASGLTFTYYAMGWYRQAPGKERELVATISWSGGTTYADSVKGRFTISRDNAKNTVYLQMNSLKPEDTAVYYCAADHPLYRRYDYWGQGTQVTVSS | high polyreactivity
QVQLVESGGGLVQAGGSLRLSCAASGFTFTYNAMGWYRQAPGKERELVAAITLSGGSTYADSVKGRFTISRDNAKNTVYLQMNSLKPEDTAVYYCNADAGVYSANATDGYDYWGQGTQVTVSS | low polyreactivity
QVQLVESGGGLVQAGGSLRLSCAASGRTFSGYVMGWYRQAPAKERELVAAIARNGGSRYYADSVKGRFTISRDKAKNTVYLQMNSLTPEDTAVYYCAADASCWRRHYYWGQGTQVTVSS | high polyreactivity
QVQLVESGGGLVQAGGSLRLSCAASGLIFSTYDMGWYRQAPGKDRELVAAISTGGSTYCADSVKGRFTMSRDNAKYTVYLQMNSLKPEDTAVYYCAAGYTYHSWPLYYWDYNYWGQGTQVTVSS | low polyreactivity
QVQLVESGGGLVQAGGSLRLSCAASGSIFRAYAMGWYRQAPGKERELVAGITKSGGSTYYADSVKGRFTISRDHAKNTVYLQMNSLKPEDTAVYYCAAYRSRTYGYWGQGTQVTVSS | high polyreactivity
QVQLVESGGGLVQAGGSLRLSCAASGRTFYHYAMGWYRQAPGKERELVATITSSGGNTYYADSVKGRFTISRDNSKNTVYLQMNSLKPEDTEVYYCAADWFVYQYSFGSSEYYYWGQGTQVTVSS | low polyreactivity
QDQHVESGGGLVQAGGSLRLSCAASGSTIVDYVMGWYRQAPGKERELVAAIRRSDGRTYYADSVKGRFTISRDNAKNTVYLQMNSLKPEDTAVYYCADYAFYRYFFPDVLYDYWGQGTQVTVSS | low polyreactivity
QVQLVESGGGLVQAGGSLRLSCAASGRTFNWNALGWYRQAPGKERELVATISRRGGSTYYADSVKGRFTISRDNAKNTVYLQMNSLKREDTAVYYCITAGRYGYDYWGQGTQVTVSS | high polyreactivity
QVQHVESGRGLVQAGCSLPLSCAASGFTFLAYAMGWYRQAPGKETELVAAISRSGGRTYYADSVKWRFTISRDNAKNTVYLQMNSLKPEDTAVYYCAKRVLTHPGDDYWGQGAQVTVSS | high polyreactivity
QVQLVESGGGLVQAGGSLRLSCAASGSTFRYYALGWYRQAPGKERELVAAINRSGGSTYYADSVKGRFTISRDNAKNTVDLQMNSLKQEETAVYYCAAPWARHYSNPDDYWGQGTQVTVSS | high polyreactivity
